# Assay results: patent US20220402983A1 (Janssen / Centocor, published 2022)
# *1 amine or outer side, *2 acyl side, *3 side chain or, on linkers, in order; H or OH if unused. Bridges are numbered along the chain shown (N, C = ends). Where no end group is shown, it is not given here. [ ]: non-standard residue; d: D form. The star is where a group is joined. Phe(4-OMe) = COc1ccc(C[C@H](N[*:1])C(=O)[*:2])cc1; Trp(7-Me) = Cc1cccc2c(C[C@H](N)C(=O)O)c[nH]c12; 2Nal = N[C@@H](Cc1ccc2ccccc2c1)C(=O)O; Propanoyl(3,3,3-F3) = O=C(CC(F)(F)F)*; AEF = NCCOc1ccc(C[C@H](N)C(=O)O)cc1; αMeF = C[C@](N)(Cc1ccccc1)C(=O)O; NMeβAla = CN(CCC(=O)[*:2])[*:1]; Pen = CC(C)(S)[C@H](N)C(=O)O; αMeK = C[C@](N)(CCCCN)C(=O)O; 3Quin = not defined here; Thp = NC1(C(=O)O)CCOCC1; Abu = CC[C@H](N)C(=O)O; Piv = CC(C)(C)C(=O)*; Propionyl = CCC(=O)*; Tfa = O=C(C(F)(F)F)*
# T1: human IL-23R (interleukin-23 receptor) (human, UniProt Q5VWK5 24-629)
# T1 sequence (looked up): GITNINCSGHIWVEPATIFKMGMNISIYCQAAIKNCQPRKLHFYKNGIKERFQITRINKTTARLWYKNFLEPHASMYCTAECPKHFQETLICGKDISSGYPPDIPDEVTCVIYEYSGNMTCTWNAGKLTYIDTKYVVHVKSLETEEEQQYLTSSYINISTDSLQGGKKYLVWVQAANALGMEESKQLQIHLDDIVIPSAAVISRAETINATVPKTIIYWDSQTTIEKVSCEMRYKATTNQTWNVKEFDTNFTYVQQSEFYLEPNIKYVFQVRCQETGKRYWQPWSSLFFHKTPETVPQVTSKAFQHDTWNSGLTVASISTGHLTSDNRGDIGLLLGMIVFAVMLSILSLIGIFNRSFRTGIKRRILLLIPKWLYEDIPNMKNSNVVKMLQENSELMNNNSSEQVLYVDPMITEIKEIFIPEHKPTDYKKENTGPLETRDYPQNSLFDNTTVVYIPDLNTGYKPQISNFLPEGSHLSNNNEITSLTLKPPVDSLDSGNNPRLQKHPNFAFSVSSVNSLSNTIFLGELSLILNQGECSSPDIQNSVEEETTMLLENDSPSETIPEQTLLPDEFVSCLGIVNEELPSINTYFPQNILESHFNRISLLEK
# B1: Compound No. 75 (peptide)
# peptide: Ac-[Pen]NT[Trp(7-Me)]K(Ac)[Pen][AEF][2Nal][αMeK]K(Ac)N[Thp]-NH2
# modifications: disulfide 1-6
# SMILES: CC(=O)NCCCC[C@@H]1NC(=O)[C@H](Cc2c[nH]c3c(C)cccc23)NC(=O)[C@H]([C@@H](C)O)NC(=O)[C@H](CC(N)=O)NC(=O)[C@@H](NC(C)=O)C(C)(C)SSC(C)(C)[C@@H](C(=O)N[C@@H](Cc2ccc(OCCN)cc2)C(=O)N[C@@H](Cc2ccc3ccccc3c2)C(=O)N[C@@](C)(CCCCN)C(=O)N[C@@H](CCCCNC(C)=O)C(=O)N[C@@H](CC(N)=O)C(=O)NC2(C(N)=O)CCOCC2)NC1=O
# B2: Compound No. 111 (peptide)
# peptide: Ac-[dR][Pen]NT[Trp(7-Me)]K(Ac)[Pen][AEF][2Nal][Thp]K(Ac)N[αMeF]-NH2
# modifications: disulfide 2-7
# SMILES: CC(=O)NCCCC[C@@H]1NC(=O)[C@H](Cc2c[nH]c3c(C)cccc23)NC(=O)[C@H]([C@@H](C)O)NC(=O)[C@H](CC(N)=O)NC(=O)[C@@H](NC(=O)[C@@H](CCCNC(=N)N)NC(C)=O)C(C)(C)SSC(C)(C)[C@@H](C(=O)N[C@@H](Cc2ccc(OCCN)cc2)C(=O)N[C@@H](Cc2ccc3ccccc3c2)C(=O)NC2(C(=O)N[C@@H](CCCCNC(C)=O)C(=O)N[C@@H](CC(N)=O)C(=O)N[C@@](C)(Cc3ccccc3)C(N)=O)CCOCC2)NC1=O
# B3: Compound No. 4 (peptide)
# peptide: Propionyl-[dR][Pen]QTWQ[Pen][Phe(4-OMe)][2Nal][Thp]EN[Thp]-NH2
# modifications: disulfide 2-7
# SMILES: CCC(=O)N[C@H](CCCNC(=N)N)C(=O)N[C@@H]1C(=O)N[C@@H](CCC(N)=O)C(=O)N[C@@H]([C@@H](C)O)C(=O)N[C@@H](Cc2c[nH]c3ccccc23)C(=O)N[C@@H](CCC(N)=O)C(=O)N[C@H](C(=O)N[C@@H](Cc2ccc(OC)cc2)C(=O)N[C@@H](Cc2ccc3ccccc3c2)C(=O)NC2(C(=O)N[C@@H](CCC(=O)O)C(=O)N[C@@H](CC(N)=O)C(=O)NC3(C(N)=O)CCOCC3)CCOCC2)C(C)(C)SSC1(C)C
# B4: Compound No. 10 (peptide)
# peptide: Propionyl-[dR][Pen]QTWQ[Pen][AEF][2Nal][Thp]EN[Thp]-NH2
# modifications: disulfide 2-7
# SMILES: CCC(=O)N[C@H](CCCNC(=N)N)C(=O)N[C@@H]1C(=O)N[C@@H](CCC(N)=O)C(=O)N[C@@H]([C@@H](C)O)C(=O)N[C@@H](Cc2c[nH]c3ccccc23)C(=O)N[C@@H](CCC(N)=O)C(=O)N[C@H](C(=O)N[C@@H](Cc2ccc(OCCN)cc2)C(=O)N[C@@H](Cc2ccc3ccccc3c2)C(=O)NC2(C(=O)N[C@@H](CCC(=O)O)C(=O)N[C@@H](CC(N)=O)C(=O)NC3(C(N)=O)CCOCC3)CCOCC2)C(C)(C)SSC1(C)C
# B5: Compound No. 3 (peptide)
# peptide: Propionyl-[dR][Pen]QTWQ[Pen][AEF][2Nal][Thp]EN[αMeF]-NH2
# modifications: disulfide 2-7
# SMILES: CCC(=O)N[C@H](CCCNC(=N)N)C(=O)N[C@@H]1C(=O)N[C@@H](CCC(N)=O)C(=O)N[C@@H]([C@@H](C)O)C(=O)N[C@@H](Cc2c[nH]c3ccccc23)C(=O)N[C@@H](CCC(N)=O)C(=O)N[C@H](C(=O)N[C@@H](Cc2ccc(OCCN)cc2)C(=O)N[C@@H](Cc2ccc3ccccc3c2)C(=O)NC2(C(=O)N[C@@H](CCC(=O)O)C(=O)N[C@@H](CC(N)=O)C(=O)N[C@@](C)(Cc3ccccc3)C(N)=O)CCOCC2)C(C)(C)SSC1(C)C
# B6: Compound No. 7 (peptide)
# peptide: Propionyl-[dR][Pen]QTWQ[Pen][AEF][2Nal][Thp]K(Piv)N[Thp]-NH2
# modifications: disulfide 2-7
# SMILES: CCC(=O)N[C@H](CCCNC(=N)N)C(=O)N[C@@H]1C(=O)N[C@@H](CCC(N)=O)C(=O)N[C@@H]([C@@H](C)O)C(=O)N[C@@H](Cc2c[nH]c3ccccc23)C(=O)N[C@@H](CCC(N)=O)C(=O)N[C@H](C(=O)N[C@@H](Cc2ccc(OCCN)cc2)C(=O)N[C@@H](Cc2ccc3ccccc3c2)C(=O)NC2(C(=O)N[C@@H](CCCCNC(=O)C(C)(C)C)C(=O)N[C@@H](CC(N)=O)C(=O)NC3(C(N)=O)CCOCC3)CCOCC2)C(C)(C)SSC1(C)C
# B7: Compound No. 8 (peptide)
# peptide: Propionyl-[dR][Pen]QTWQ[Pen][AEF][2Nal][Thp]EN[NMeβAla]-NH2
# modifications: disulfide 2-7
# SMILES: CCC(=O)N[C@H](CCCNC(=N)N)C(=O)N[C@@H]1C(=O)N[C@@H](CCC(N)=O)C(=O)N[C@@H]([C@@H](C)O)C(=O)N[C@@H](Cc2c[nH]c3ccccc23)C(=O)N[C@@H](CCC(N)=O)C(=O)N[C@H](C(=O)N[C@@H](Cc2ccc(OCCN)cc2)C(=O)N[C@@H](Cc2ccc3ccccc3c2)C(=O)NC2(C(=O)N[C@@H](CCC(=O)O)C(=O)N[C@@H](CC(N)=O)C(=O)N(C)CCC(N)=O)CCOCC2)C(C)(C)SSC1(C)C
# B8: Compound No. 5 (peptide)
# peptide: {Propanoyl(3,3,3-F3)}-[dR][Pen]QTWQ[Pen][AEF][2Nal][Thp]EN[Thp]-NH2
# modifications: disulfide 2-7
# SMILES: C[C@@H](O)[C@@H]1NC(=O)[C@H](CCC(N)=O)NC(=O)[C@@H](NC(=O)[C@@H](CCCNC(=N)N)NC(=O)CC(F)(F)F)C(C)(C)SSC(C)(C)[C@@H](C(=O)N[C@@H](Cc2ccc(OCCN)cc2)C(=O)N[C@@H](Cc2ccc3ccccc3c2)C(=O)NC2(C(=O)N[C@@H](CCC(=O)O)C(=O)N[C@@H](CC(N)=O)C(=O)NC3(C(N)=O)CCOCC3)CCOCC2)NC(=O)[C@H](CCC(N)=O)NC(=O)[C@H](Cc2c[nH]c3ccccc23)NC1=O
# B9: Compound No. 6 (peptide)
# peptide: Propionyl-[dR][Pen]QTWQ[Pen][AEF][2Nal][Thp]K(Tfa)N[Thp]-NH2
# modifications: disulfide 2-7
# SMILES: CCC(=O)N[C@H](CCCNC(=N)N)C(=O)N[C@@H]1C(=O)N[C@@H](CCC(N)=O)C(=O)N[C@@H]([C@@H](C)O)C(=O)N[C@@H](Cc2c[nH]c3ccccc23)C(=O)N[C@@H](CCC(N)=O)C(=O)N[C@H](C(=O)N[C@@H](Cc2ccc(OCCN)cc2)C(=O)N[C@@H](Cc2ccc3ccccc3c2)C(=O)NC2(C(=O)N[C@@H](CCCCNC(=O)C(F)(F)F)C(=O)N[C@@H](CC(N)=O)C(=O)NC3(C(N)=O)CCOCC3)CCOCC2)C(C)(C)SSC1(C)C
# B10: Compound No. 1 (peptide)
# peptide: Ac-[Pen]NT[Trp(7-Me)]K(Ac)[Pen][AEF][3Quin][αMeK]K(Ac)N[dL]-NH2
# modifications: disulfide 1-6; reading uncertain; also: printed as Ac-[Pen]-N-T-[W(7-Me)]-[Lys(Ac)]-[Pen]-Phe[4-(2-aminoethoxy)]-[3-Quin]-[a-MeLys]-[Lys(Ac)]-N-[(D)Leu)]-NH2
# Target: T1, human IL-23R (interleukin-23 receptor)
# Assay: cell-based or functional assay
PBMC pSTAT3 IC50 (nM),"pStat3 HTRF (nM), IC50, DB cells IL23R pSTAT3 cell assay [nM]",Binder
8.9,0.787,B1
,0.889,Ac-[Abu]QT[Trp(7-Me)]K(Ac)C[AEF][2Nal][αMeK]K(Ac)N[dK]-NH2 (thioether 1-6) [Compound No. 64]
,1.29,B2
,4.17,B3
4.6,4.16,B4
40,2.31,B5
8.6,3.87,B6
,2.27,Ac-[Abu]QT[Trp(7-Me)]K(Ac)C[AEF][2Nal][αMeK]K(Ac)N[αMeF]-NH2 (thioether 1-6) [Compound No. 66]
,24.6,B7
,0.966,Ac-[Abu]QT[Trp(7-Me)]K(Ac)C[AEF][2Nal][αMeK]K(Ac)N[dL]-NH2 (thioether 1-6) [Compound No. 65]
29,3.12,[dR][Pen]QTWQ[Pen][AEF][2Nal][Thp]EN[Thp]-NH2 (disulfide 2-7; not fully specified (N-terminus)) [Compound No. 9]
4.7,2.94,B8
8.6,2.46,B9
,0.602,B10

# Target: T1, human IL-23R (interleukin-23 receptor)
# Assay: cell-based or functional assay
# Remark: another data set of the same source
row,"NK Cell Assay (nM), IC50, IFN-gamma after IL-23 and IL-18 [nM]",Binder
1,2.69,B1
2,5.44,Ac-[Abu]QT[Trp(7-Me)]K(Ac)C[AEF][2Nal][αMeK]K(Ac)N[dK]-NH2 (thioether 1-6) [Compound No. 64]
3,6.51,B2
4,32.1,B3
5,8.29,B4
6,20.1,B5
7,12.6,B6
8,13.1,Ac-[Abu]QT[Trp(7-Me)]K(Ac)C[AEF][2Nal][αMeK]K(Ac)N[αMeF]-NH2 (thioether 1-6) [Compound No. 66]
9,72.3,B7
10,6.03,Ac-[Abu]QT[Trp(7-Me)]K(Ac)C[AEF][2Nal][αMeK]K(Ac)N[dL]-NH2 (thioether 1-6) [Compound No. 65]
11,11.6,[dR][Pen]QTWQ[Pen][AEF][2Nal][Thp]EN[Thp]-NH2 (disulfide 2-7; not fully specified (N-terminus)) [Compound No. 9]
12,10.3,B8
13,16.8,B9
14,2.89,B10
